Results: paper PMC10514967, “The terpene synthase (TPS) gene family in kiwifruit shows high functional redundancy and a subset of TPS likely fulfil overlapping functions in fruit flavour, floral bouquet and defence” (Molecular Horticulture, 2023)
Blank lines part the entries; values can stand above or below the molecule they belong to.

Experiments:
AcLIS/NES = assay: SPME GC-MS of major terpene product, Michaelis-Menten fit; format: biochemical, Actinidia chinensis var. chinensis; conditions: 50 mM Bis-Tris propane pH 7.5, 10 mM MgCl2, 30 °C
Source text: SPME GC-MS of major terpene product, Michaelis-Menten fit on AcLIS/NES

[1] = substrate: CC(C)=CCC/C(C)=C/CC/C(C)=C/CO[P@@](=O)(O)OP(=O)(O)O; assay: as above; format: biochemical, Actinidia chinensis; conditions: 50 mM Bis-Tris propane pH 7.5, 10 mM MgCl2, 30 °C
Source text: SPME GC-MS of major terpene product, Michaelis-Menten fit on AcBCS

Km (AcLIS/NES): 30.9 ± 3.81 µM
Molecule: CC(C)=CCC/C(C)=C/COP(=O)(O)OP(=O)(O)O [GDP]

Km (AcLIS/NES): 7.43 ± 1.25 µM
Molecule: CC(C)=CCC/C(C)=C/CC/C(C)=C/COP(=O)(O)OP(=O)(O)O [FDP]

B1: AcBCS (Actinidia chinensis var. chinensis) (protein)
chain: MAISCATALPIPTVSTKITMEPLVTRRSANYHPSIWGDHFLAYSSLPTEVDVNMEQEQLHQLKQKVIKMLMAAADKPSQMLNLIDRIQRLGVSYHFKTEIEAALKHIYESDHHFDDLYTVALFFRLLRQQGFPVSCEVFNKFKNNQGKFQECLIGDVVGILCLYEATHLRVRGEEILDEALSFTTTHLESMVPNLSNPVAEHAIHALNQPIHKGLTRLDARQYISFYEQDDSHNKDLLNFAKLDFNLLQKLHQRELCEITRWWKDLDFAKKLPFARDRLVESYFWVLGVYFEPQYWLARRILTKVIAMSSVIDDIYDVYGTLEELALFTDAIERWEISSLDKLPEYMKLCYQALLDIYSTIDEEMAKQGGSYRVYYAKSEMKNLVRGYFEEAKWFHQGYVPSMEEYMQVALLSSGYKMVTTTSFVGMGELATKEAFDWVSSYPLIVEAVSAIARLTDDIVGHKFEQQRGHVASAVECYMKQNGATEEEAIVELYEQVTNAWKDMNAECLYSTKVPMPLLVRVLNLARVINVLYKDEDSYTHSGTRTKNFVTSVLIDSVPIN
Km [1]: 1.54 ± 0.54 µM
Vmax [1]: 0.013 µM/min
kcat [1]: 0.0087 ± 0.002 s⁻¹
kcat/Km [1]: 5870 ± 1100 M⁻¹ s⁻¹
